Experimental data from patent US20190203210A1.

target: FLAG-HA-Atoh1 (UniProt Q92858); experiment: MS of 450 kDa Coomassie band from FLAG-HA-Atoh1 IP

| Substance | Total peptide | Unique peptide |
| --- | --- | --- |
| AKAP9 (from UniProt Q99996 1-3907) | 26 | 26 |
| CEP350 (from UniProt Q5VT06 1-3117) | 23 | 21 |
| DMXL1 (from UniProt Q9Y485 1-3027) | 13 | 12 |
| DYNC1H1 (from UniProt Q14204 2-4646) | 87 | 75 |
| GOLGB1 (from UniProt Q14789 1-3259) | 12 | 10 |
| HECT, UBA and WWE domain containing 1 (Huwe1) protein, Q7Z6Z7 1-4374 | 279 | 122 |
| HERC2 (from UniProt O95714 1-4834) (enzyme) | 36 | 34 |
| KIF11 (from UniProt P52732 1-1056) | 79 | 46 |
| MACF1 (from UniProt Q9UPN3 1-7388) | 51 | 50 |
| MAP1A (from UniProt P78559 1-2803) | 15 | 14 |
| MAP1B (from UniProt P46821 2-2468) | 133 | 78 |
| MDN1 (from UniProt Q9NU22 1-5596) | 41 | 37 |
| MGA (from UniProt Q8IWI9 1-3065) | 29 | 27 |
| MYCBP2 (from UniProt O75592 1-4678) (enzyme) | 51 | 47 |
| PLEC (from UniProt Q15149 1-4684) | 17 | 16 |
| PRKDC (from UniProt P78527 1-4128) (enzyme) | 161 | 112 |
| PRRC2C (from UniProt Q9Y520 1-2896) | 26 | 21 |
| RNF213 (from UniProt Q63HN8 1-5207) (enzyme) | 32 | 30 |
| SACS (from UniProt Q9NZJ4 1-4579) | 12 | 12 |
| SON (from UniProt P18583 2-2426) | 22 | 20 |
| SRRM2 (from UniProt Q9UQ35 1-2752) | 53 | 38 |
| TRRAP (from UniProt Q9Y4A5 2-3859) | 12 | 12 |
| UBR5 (from UniProt O95071 2-2799) (enzyme) | 31 | 26 |
| UTRN (from UniProt P46939 1-3433) | 30 | 30 |

target: FLAG-HA-Atoh1 (UniProt Q92858); experiment: not given

| Substance | poly-ubiquitylation of Atoh1 after Huwe1 knockdown (shRNA) |
| --- | --- |
| HECT, UBA and WWE domain containing 1 (Huwe1) protein | decreased poly-ubiquitylation was observed after Huwe1 knockdown |

tested on: FLAG-Atoh1; experiment: not given

| Substance | wild-type and K48 poly-ubiquitylated Atoh1 |
| --- | --- |
| Myc-Huwe1 C4341A | The resulting decrease in both wild-type and K48 poly-ubiquitylated Atoh1 |

target: FLAG-HA-Atoh1 (UniProt Q92858); experiment: anti-HA IP of FLAG-HA-Atoh1 293T lysate, LC-MS/MS, ComPASS

| Substance | D^N Score | Z score |
| --- | --- | --- |
| AAMP (from UniProt Q13685 1-434) | 1 | 5.03 |
| ACOX1 (from UniProt Q15067 1-660) | 1.41 | 5.71 |
| AHSA1 (from UniProt O95433 1-338) | 1 | 5.03 |
| ATP2A1 (from UniProt O14983 1-1001) | 1.41 | 5.71 |
| BCKDHA (from UniProt P12694 46-445) | 2 | 5.54 |
| CCDC124 (from UniProt Q96CT7 1-223) | 1 | 5.03 |
| CPOX (from UniProt P36551 111-454) | 2 | 5.54 |
| CTPS2 (from UniProt Q9NRF8 1-586) | 2.45 | 5.6 |
| EIF2C1 (from UniProt Q9UL18 1-857) | 1 | 5.16 |
| EIF2C2 (from UniProt Q9UKV8 1-859) | 3.16 | 5.72 |
| EIF2C3 (from UniProt Q9H9G7 1-860) | 1 | 5.16 |
| ENAH (from UniProt Q8N8S7 1-591) | 1.41 | 5.71 |
| FHL3 (from UniProt Q13643 2-280) | 1 | 5.16 |
| FLNC (from UniProt Q14315 1-2725) | 1.15 | 5.21 |
| GFAP (from UniProt P14136 1-432) | 2.45 | 5.71 |
| HECT, UBA and WWE domain containing 1 (Huwe1) protein, Q7Z6Z7 1-4374 | 1.5 | 5.56 |
| MAPK3 (from UniProt P27361 2-379) (enzyme) | 2 | 5.71 |
| NEK9 (from UniProt Q8TD19 2-979) (enzyme) | 2.83 | 5.54 |
| NT5DC2 (from UniProt Q9H857 1-520) | 2 | 5.71 |

| Substance | D^N Score | Z score |
| --- | --- | --- |
| PDE4D (from UniProt Q08499 1-809) | 1.41 | 5.71 |
| PDXK (from UniProt O00764 1-312) | 1.41 | 5.71 |
| PRDX4 (from UniProt Q13162 38-271) | 1.23 | 4.6 |
| PRPS1 (from UniProt P60891 2-318) | 1.23 | 4.6 |
| SEC23A (from UniProt Q15436 2-765) | 1.23 | 5.24 |
| SEC23B (from UniProt Q15437 2-767) | 1 | 5.03 |
| SERPINH1 (from UniProt P50454 19-418) | 1 | 3.92 |
| SLC3A2 (from UniProt P08195 2-529) | 1.41 | 5.71 |
| SRI (from UniProt P30626 1-198) | 1.41 | 5.71 |
| TCF3 (from UniProt P15923 1-654) | 3.16 | 5.57 |
| TCF12 (from UniProt Q99081 1-682) | 2.45 | 5.71 |
| TNRC6C (from UniProt Q9HCJ0 1-1936) | 2 | 5.71 |
| TUBA1C (from UniProt Q9BQE3 1-449) | 1.39 | 2.88 |
| TUBA4A (from UniProt P68366 1-448) | 3 | 3.77 |
| TUBB2B (from UniProt Q9BVA1 1-445) | 2.58 | 4.36 |
| USP11 (from UniProt P51784 1-963) (enzyme) | 1.41 | 5.42 |
| USP47 (from UniProt Q96K76 1-1375) (enzyme) | 2 | 5.54 |
| YARS2 (from UniProt Q9Y2Z4 17-477) | 1.41 | 5.71 |
| ZYX (from UniProt Q15942 2-572) | 1.58 | 5.48 |
